Measured values: paper PMC7375048, “The impact of acute rosiglitazone on insulin pharmacokinetics at the blood‐brain barrier” (Endocrinology, Diabetes & Metabolism, 2020)
Where a name gives a salt, the structure may show the parent alone.

Experiments:
murine BBB [1] = assay: Blood-to-brain 125I-insulin transport, multiple-time regression analysis; type: in vivo, mouse
Description: (§1) This experimental set‐up was based on previous studies investigating the acute effect of rosiglitazone. ^35 , ^36
(§2) Mice were decapitated, and the brain was collected immediately, dissected into the hypothalamus, olfactory bulb and remaining whole brain and weighed. Blood was centrifuged at 5400g for 10 min and serum collected. Radioactivity in 50 µL of serum and entire brain samples were counted in a gamma counter (Wizard2; Perkin Elmer).
Exposure time is calculated by the formula:(1) Exposure time=∫0tCp(t)dt/Cp(t) where Cp(t) is the level of radioactivity (cpm) in serum at time (t). Exposure time corrects for the clearance of peptide from the blood. […] The slope of the linearity measures K i and is reported with its standard error term. […] For cardiac perfusion studies, formula 2 is employed, using the brain/perfusate ratios and the clock time is used in place of exposure time.

[2] = system: brain capillary sequestration; type: in vivo, mouse
Description: Two and a half minutes later, blood was collected from the carotid, the mice decapitated and the whole brain removed. […] Homogenates were then centrifuged at 3500 g for 20 minutes at 4°C with a swinging bucket rotor (Beckman Coulter). The brain capillary fraction contained in the pellet and the supernatant containing the brain parenchyma were carefully separated. […] Fractions were expressed as percentages of total brain.

[3] = mouse, in vivo, iv
Description: as §2

murine BBB [4] = assay: Transcardiac brain perfusion of 125I-insulin, multiple-time regression analysis; details: mouse, in vivo
Description: as §1
The perfusate was freshly prepared for each study day. Perfusate was collected throughout the study to determine the average cpm/µL of perfusate. After perfusion, the olfactory bulb was collected and the brain dissected into regions (frontal/parietal/occipital cortex, striatum, hypothalamus, hippocampus, thalamus, cerebellum, midbrain and pons/medulla) according to Glowinski and Iversen; ^38 each region was weighed separately. The amount of radioactivity was determined by a gamma counter (Wizard2, Perkin Elmer). Brain/perfusate ratios are calculated by dividing the cpm in a gram of brain by the cpm in a µL of perfusate to yield units of µL/g.
Exposure time is calculated by the formula:(1) Exposure time=∫0tCp(t)dt/Cp(t) where Cp(t) is the level of radioactivity (cpm) in serum at time (t). Exposure time corrects for the clearance of peptide from the blood. […] The slope of the linearity measures K i and is reported with its standard error term. The y‐intercept of the linearity measures V i, the initial volume of distribution in brain at t = 0. ^37 Blasberg, Fenstermacher and Patlak originally described V i as the volume of test substance that rapidly and reversibly exchanges with the plasma (Blasberg 1983). For cardiac perfusion studies, formula 2 is employed, using the brain/perfusate ratios and the clock time is used in place of exposure time.

P‐glycoprotein = details: cited from earlier work
Description: (§3) However, we were interested in the direct effect that would be mediated at the luminal surface of the brain endothelial cell, rather than an effect within the CNS. Indeed, PPARγ activation is known to have a direct effect on cerebral vascular expression of proteins, including various adhesion molecules and metalloproteinases. ^61 Therefore, we know brain en ...

murine BBB [5] = details: mouse, in vivo, iv; cited from earlier work
Description: as §3

| Compound | BBB transport rate K i, hypothalamus (murine BBB [1]; mouse, in vivo) [µL/g‐min] | average rate of transport K i, hypothalamus (murine BBB [1]; mouse, in vivo) [µL/g‐min] | average rate of transport K i, olfactory bulb (murine BBB [1]; mouse, in vivo) [µL/g‐min] | vascular binding V i, hypothalamus (murine BBB [1]; mouse, in vivo) [µL/g] | vascular binding V i, olfactory bulb (murine BBB [1]; mouse, in vivo) [µL/g] | BBB transport rate K i, whole brain (murine BBB [1]; mouse, in vivo, iv) [µL/g‐min] | fraction of radioactivity in brain parenchyma vs capillary fraction ([2]; mouse, in vivo, iv) | average half‐time clearance from blood [3] [min] | BBB transport rate K i following cardiac perfusion, hypothalamus (murine BBB [4]) [µL/g‐min] | BBB transport rate K i following cardiac perfusion, olfactory bulb (murine BBB [4]) [µL/g‐min] | change of hypothalamic BBB transport rate in the absence of serum (murine BBB [4]) | vascular binding V i following cardiac perfusion, hypothalamus (murine BBB [4]) [µL/g] | vascular binding V i following cardiac perfusion, olfactory bulb (murine BBB [4]) [µL/g] | P‐glycoprotein interaction (P‐glycoprotein) | penetration of the murine BBB (murine BBB [5]) | time of brain uptake (murine BBB [5]) [min] | effect on 125I-insulin vascular binding (V i), whole brain (murine BBB [1]; 1 µg S961 (P = .0006), 10 µg RSG pretreatment with S961 (P = .044), two-way ANOVA, Sidak) | effect on 125I-insulin vascular binding (V i), hypothalamus (murine BBB [1]; 1 µg S961 (P = .002), 10 µg RSG pretreatment with S961 (P = .025), two-way ANOVA, Sidak) | effect on rate of 125I-insulin BBB transport (murine BBB [1]; whole brain, olfactory bulb, hypothalamus, 10 µg RSG pretreatment, 1 µg S961 co-injected) | effect on capillary/parenchyma distribution of 125I-insulin ([2]; 10 µg RSG pretreatment, data not shown) |
| --- | --- | --- | --- | --- | --- | --- | --- | --- | --- | --- | --- | --- | --- | --- | --- | --- | --- | --- | --- | --- |
| 125I‐insulin: human insulin (Sigma‐Aldrich) radioactively labelled with 125I by the chloramine‐T method | 1.39 ± 0.28 | 1.75 | 2.25 | 11.6 ± 2.0 | 10.4 ± 4.8 | 1.26 ± 0.17 | majority | 1.54 | 6.11 ± 1.92 | 3.34 ± 1.31 | nearly tripled | -4.5 ± 5.7 | 13.5 ± 4.4 | – | – | – | – | – | – | – |
| CN(CCOc1ccc(CC2SC(=O)NC2=O)cc1)c1ccccn1 (centres unmarked) [RSG, rosiglitazone maleate] | – | – | – | – | – | – | – | – | – | – | – | – | – | substrate of p‐glycoprotein | 0.045 % of an iv injected dose | ≤ 1 | prevented this decrease in binding | prevented this decrease in binding | did not significantly alter | no overt differences |
